{"source": "paper PMC9672126", "parents": {"B1": {"name": "Flag-BNIP3 wild-type (BCL2/adenovirus e1B 19 kDa protein interacting protein 3) [rat] / GFP-LC3 (microtubule-associated protein 1 light chain 3; plasmid pEGFP-C1-LC3B) [not stated] (parent)", "chain 1": "MSQSGEENLQGSWVELHFSNGNGSSVPASVSIYNGDMEKILLDAQHESGRSSSKSSHCDSPPRSQTPQDTNRAEIDTHSFGEKNSTLSEEDYIERRREVESILKKNSDWIWDWSSRPENVPPKEFLFKHPKRTATLSMRNTSVMKKGGIFSADFLKVFLPSLLLSHLLAIGLGIYIGRRLTTSTSTF", "chain 2": "not shown"}}}
{"variants_of": "B1", "experiment": "co-IP (anti-Flag immunoprecipitation, western blot, quantified)", "settings": "with GFP-LC3 (microtubule-associated protein 1 light chain 3; plasmid pEGFP-C1-LC3B); HeLa cells, 48 h after transfection; n = 3; means ± SEM; read off a plot"}
{"variant": "chain 1 S60A T66A", "ratio to parent (Folds of Control)": 0.13}
{"variant": "chain 1 S60A", "ratio to parent (Folds of Control)": 0.33}
{"variant": "chain 1 S60E", "ratio to parent (Folds of Control)": 0.85}
{"variant": "chain 1 S60D", "ratio to parent (Folds of Control)": 0.85}
